Holding throughout (experiment): fluorescence anisotropy
A general note: Polarisation of emitted light reports the rotation of a fluorescent probe.

One series deals with T1, SA2 (STAG2) (UniProt Q8N3U4 1-1231).
T1 sequence: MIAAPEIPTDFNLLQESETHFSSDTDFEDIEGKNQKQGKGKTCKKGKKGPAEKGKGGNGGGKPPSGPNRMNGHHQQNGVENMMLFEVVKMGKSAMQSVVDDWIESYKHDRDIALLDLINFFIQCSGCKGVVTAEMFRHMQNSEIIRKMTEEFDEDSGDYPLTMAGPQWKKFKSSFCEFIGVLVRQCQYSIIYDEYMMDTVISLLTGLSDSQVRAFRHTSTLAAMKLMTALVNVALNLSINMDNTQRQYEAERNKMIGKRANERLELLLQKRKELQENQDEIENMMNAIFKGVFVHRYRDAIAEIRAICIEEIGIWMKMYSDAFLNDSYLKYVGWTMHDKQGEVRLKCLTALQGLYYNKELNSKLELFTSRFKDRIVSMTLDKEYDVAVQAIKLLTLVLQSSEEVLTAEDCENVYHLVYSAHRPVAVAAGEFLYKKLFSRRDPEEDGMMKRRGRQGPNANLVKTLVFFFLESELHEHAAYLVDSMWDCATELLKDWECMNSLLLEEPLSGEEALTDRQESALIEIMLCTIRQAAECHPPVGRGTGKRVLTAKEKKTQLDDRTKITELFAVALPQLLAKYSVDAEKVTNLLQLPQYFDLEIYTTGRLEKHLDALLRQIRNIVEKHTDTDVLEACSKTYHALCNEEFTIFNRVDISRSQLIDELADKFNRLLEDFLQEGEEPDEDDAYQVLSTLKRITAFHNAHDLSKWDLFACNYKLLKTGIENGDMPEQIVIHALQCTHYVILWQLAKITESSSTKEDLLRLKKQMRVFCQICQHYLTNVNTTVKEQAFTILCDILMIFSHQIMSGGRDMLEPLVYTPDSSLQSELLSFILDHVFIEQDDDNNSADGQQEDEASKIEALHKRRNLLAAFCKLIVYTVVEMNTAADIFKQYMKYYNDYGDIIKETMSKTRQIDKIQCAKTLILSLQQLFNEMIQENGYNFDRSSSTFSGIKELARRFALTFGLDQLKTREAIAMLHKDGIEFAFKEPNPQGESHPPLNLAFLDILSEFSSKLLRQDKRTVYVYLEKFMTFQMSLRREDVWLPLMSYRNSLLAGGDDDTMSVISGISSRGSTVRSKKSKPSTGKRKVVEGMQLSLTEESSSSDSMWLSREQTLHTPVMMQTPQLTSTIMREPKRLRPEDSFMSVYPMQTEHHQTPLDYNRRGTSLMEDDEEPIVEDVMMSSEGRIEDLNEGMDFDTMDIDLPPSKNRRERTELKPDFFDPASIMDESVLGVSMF

A further series addresses T2, SA1 (STAG1) (UniProt Q8WVM7 1-1258).
T2 sequence: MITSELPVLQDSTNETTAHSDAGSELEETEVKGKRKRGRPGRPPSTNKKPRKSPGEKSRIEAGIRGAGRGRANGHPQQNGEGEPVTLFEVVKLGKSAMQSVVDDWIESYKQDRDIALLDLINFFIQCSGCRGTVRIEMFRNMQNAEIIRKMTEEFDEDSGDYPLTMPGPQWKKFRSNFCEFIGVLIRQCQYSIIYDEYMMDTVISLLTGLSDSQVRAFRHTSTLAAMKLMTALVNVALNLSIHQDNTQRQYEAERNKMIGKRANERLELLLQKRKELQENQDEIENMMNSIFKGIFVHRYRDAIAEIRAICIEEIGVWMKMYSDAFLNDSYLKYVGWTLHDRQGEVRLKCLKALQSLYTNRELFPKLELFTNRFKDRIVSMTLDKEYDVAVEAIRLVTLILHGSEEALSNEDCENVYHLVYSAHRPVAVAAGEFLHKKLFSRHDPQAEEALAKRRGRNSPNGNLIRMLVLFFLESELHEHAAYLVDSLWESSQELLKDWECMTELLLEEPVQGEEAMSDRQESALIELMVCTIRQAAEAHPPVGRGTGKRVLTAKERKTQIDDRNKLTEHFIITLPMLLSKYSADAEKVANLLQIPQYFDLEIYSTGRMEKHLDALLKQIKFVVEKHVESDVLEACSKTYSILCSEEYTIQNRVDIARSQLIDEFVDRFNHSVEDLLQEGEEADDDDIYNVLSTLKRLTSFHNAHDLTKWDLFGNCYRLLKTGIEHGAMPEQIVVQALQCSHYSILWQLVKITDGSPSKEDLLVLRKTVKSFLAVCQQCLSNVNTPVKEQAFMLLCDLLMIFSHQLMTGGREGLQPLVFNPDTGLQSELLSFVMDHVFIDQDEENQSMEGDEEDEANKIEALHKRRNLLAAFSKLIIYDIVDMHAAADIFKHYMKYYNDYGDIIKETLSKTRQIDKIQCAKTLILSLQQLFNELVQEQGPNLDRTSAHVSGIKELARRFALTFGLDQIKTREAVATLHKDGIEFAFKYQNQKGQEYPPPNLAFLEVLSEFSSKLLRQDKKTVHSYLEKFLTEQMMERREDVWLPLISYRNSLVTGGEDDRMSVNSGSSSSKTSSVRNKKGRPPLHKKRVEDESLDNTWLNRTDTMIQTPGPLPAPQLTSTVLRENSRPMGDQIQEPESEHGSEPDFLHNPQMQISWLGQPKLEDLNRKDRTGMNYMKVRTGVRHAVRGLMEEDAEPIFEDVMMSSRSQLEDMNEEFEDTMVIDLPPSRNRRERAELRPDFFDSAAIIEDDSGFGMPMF

In another series the target is EWSR1 (UniProt Q01844 1-656).
Sequence of EWSR1 (Q01844 whole entry): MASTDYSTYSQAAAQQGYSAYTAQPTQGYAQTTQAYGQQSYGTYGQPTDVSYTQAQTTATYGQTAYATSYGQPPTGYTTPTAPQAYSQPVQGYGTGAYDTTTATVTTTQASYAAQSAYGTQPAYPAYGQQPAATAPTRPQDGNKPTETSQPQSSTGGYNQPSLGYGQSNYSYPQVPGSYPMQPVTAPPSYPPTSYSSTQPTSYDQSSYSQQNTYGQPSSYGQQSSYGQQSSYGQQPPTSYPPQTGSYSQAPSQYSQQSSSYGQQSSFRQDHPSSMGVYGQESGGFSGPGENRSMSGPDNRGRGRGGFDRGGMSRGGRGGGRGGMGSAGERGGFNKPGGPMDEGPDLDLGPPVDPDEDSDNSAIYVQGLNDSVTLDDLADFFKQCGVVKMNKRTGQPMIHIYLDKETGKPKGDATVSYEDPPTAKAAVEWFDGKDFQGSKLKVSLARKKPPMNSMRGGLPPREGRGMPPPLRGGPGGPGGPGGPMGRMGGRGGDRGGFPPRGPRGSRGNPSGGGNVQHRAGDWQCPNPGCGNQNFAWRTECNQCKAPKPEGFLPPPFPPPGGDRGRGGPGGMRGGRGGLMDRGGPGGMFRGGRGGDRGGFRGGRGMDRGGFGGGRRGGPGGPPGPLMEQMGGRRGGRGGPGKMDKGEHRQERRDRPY

B1: RNA:DNA hybrid (25 bp) (DNA:RNA)
RNA: GCAGCUGGCACGACAGGUAUGAAUC
DNA: GATTCATACCTGTCGTGCCAGCTGC
As for B1, the Kd (as a rule, a measure of binding affinity in units of concentration) with SA2 (STAG2) was 43.3 ± 5.6 nM; with SA1 (STAG1), 58.6 ± 1.5 nM.

As to GCAGCUGGCACGACAGGUAUGAAUC (ssRNA) [25 nt RNA (R-loop oligo)], the Kd came out at 251 ± 3.2 nM with SA2 (STAG2), 164 ± 37.4 nM with SA1 (STAG1) and 134.2 ± 0.04 nM with EWSR1.

B2: RNA:DNA hybrid (45 bp) (DNA:RNA)
RNA: CUGGAUCCGUACAGUGUAAGGGUGAGUGGUUGGGUGUGUGGGUGU
DNA: ACACCCACACACCCAACCACTCACCCTTACACTGTACGGATCCAG
On to B2, for which the Kd is 31.7 ± 1.5 nM with SA2 (STAG2), 44 ± 5.9 nM with SA1 (STAG1) and 27.7 ± 4.1 nM with EWSR1.

With CUGGAUCCGUACAGUGUAAGGGUGAGUGGUUGGGUGUGUGGGUGU (ssRNA) [45 nt RNA], the results for the Kd in the series with SA2 (STAG2) and with SA1 (STAG1) were 11.4 ± 1.2 nM and 6 ± 0.6 nM, respectively.

B3: 66 nt RNA-1 (ssRNA)
RNA: CUGGAUCCGUACAGUGUAAGGGUGAGUGGUUGGGUGUGUGGGUGUUGAUGUAGAACAAGAAUUCGA
Take B3: the Kd with SA2 (STAG2) was determined as 7.2 ± 2.5 nM; with SA1 (STAG1) it was 3.2 ± 0.3 nM; with EWSR1, 35.1 ± 1.8 nM.

B4: Model R-loop (mixed)
RNA: GCAGCUGGCACGACAGGUAUGAAUC
DNA 1: GCCAGGGACGAGGTGAACCTGCAGGTGGGCGGCTACTACTTAGATGTCATCCGAGGCTTATTGGTAGAATTCGGCAGCGTCATGCGACGGC
DNA 2: GCCGTCGCATGACGCTGCCGAATTCTACCACGCGATTCATACCTGTCGTGCCAGCTGCTTTGCCCACCTGCAGGTTCACCTCGTCCCTGGC
With B4, the Kd with SA2 (STAG2) came out at 36 ± 4 nM; with SA1 (STAG1) it was 38.4 ± 8.7 nM; with EWSR1, 28.6 ± 0.8 nM.

B5: 66 nt RNA-2 (ssRNA)
RNA: UCGAAUUCUUGUUCUACAUCAACACCCACACACCCAACCACUCACCCUUACACUGUACGGAUCCAG
In the case of B5, the Kd with SA2 (STAG2) came to 5.1 ± 0.6 nM; in the series with SA1 (STAG1), 3 ± 0.1 nM.

The values are drawn from paper PMC7261166.
